Test in all cases: purified protein
Substrate in data set [1]: O=P(O)(O)OP(=O)(O)O
It is filed as biochemical, Saccharum hybrid cultivar. The following applies: untreated enzyme, UDPG fixed at 2 mM, 5 mM MgCl2, Hepes-NaOH pH 7.5, room temperature.

Substrate in data set [2]: O=c1ccn([C@@H]2O[C@H](CO[P@@](=O)(O)O[P@@](=O)(O)O[C@H]3O[C@H](CO)[C@@H](O)[C@H](O)[C@H]3O)[C@@H](O)[C@H]2O)c(=O)[nH]1
It is filed as biochemical, Saccharum hybrid cultivar. Conditions: untreated enzyme, PPi fixed at 1 mM, 5 mM MgCl2, Hepes-NaOH pH 7.5, room temperature.

Substrate in data set [3]: O=P(O)(O)OP(=O)(O)O
The format is biochemical, Hordeum vulgare. Conditions: reduced enzyme (2 mM DTT overnight), 5 mM MgCl2, Hepes-NaOH pH 7.5, room temperature.

Substrate in data set [4]: O=c1ccn([C@@H]2O[C@H](CO[P@@](=O)(O)O[P@@](=O)(O)O[C@H]3O[C@H](CO)[C@@H](O)[C@H](O)[C@H]3O)[C@@H](O)[C@H]2O)c(=O)[nH]1
The format is biochemical, Hordeum vulgare. Conditions: reduced enzyme (2 mM DTT overnight), 5 mM MgCl2, Hepes-NaOH pH 7.5, room temperature.

B1: sugarcane UGPase (Saccharum hybrid cultivar SP80-3280) (protein)
chain: MAAAAAAEVSVDEKLDKLRAEVAKLDQISENEKAGFISLVSRYLSGEAEQIEWSKIQTPTDEVVVPYDTLASPPEDLEETKKLLDKLVVLKLNGGLGTTMGCTGPKSVIEVRNGFTFLDLIVIQIESLNKKYGCSVPLLLMNSFNTHDDTQKIVEKYSNSNIEIHTFNQSQYPRIVTEDFLPLPSKGKSGKDGWYPPGHGDVFPSLNNSGKLDILLAQGKEYVFIANSDNLGAIVDIKILNHLINNQNEYCMEVTPKTLADVKGGTLISYEGRVQLLEIAQVPDEHVNEFKSIEKFKIFNTNNLWVNLKAIKRLVEAEALKMEIIPNPKEVDGVKVLQLETAAGAAIRFFDKAIGINVPRSRFLPVKATSDLLLVQSDLYTLVDGFVIRNPARANPANPSIELGPEFKKVANFLARFKSIPSIVELDSLKVSGDVWFGSGITLKGKVTITAKSGVKLEIPDGAVLENKDVNGPEDL
notes: active as monomer
Turning to B1, the Km – broadly, the concentration of substrate that gives half-maximal velocity – in data set [1] came out at 40 µM; in data set [2], 80 µM.

B2: sugarcane UGPase (Saccharum hybrid cultivar SP80-3280; C102S) (protein)
chain: MAAAAAAEVSVDEKLDKLRAEVAKLDQISENEKAGFISLVSRYLSGEAEQIEWSKIQTPTDEVVVPYDTLASPPEDLEETKKLLDKLVVLKLNGGLGTTMGSTGPKSVIEVRNGFTFLDLIVIQIESLNKKYGCSVPLLLMNSFNTHDDTQKIVEKYSNSNIEIHTFNQSQYPRIVTEDFLPLPSKGKSGKDGWYPPGHGDVFPSLNNSGKLDILLAQGKEYVFIANSDNLGAIVDIKILNHLINNQNEYCMEVTPKTLADVKGGTLISYEGRVQLLEIAQVPDEHVNEFKSIEKFKIFNTNNLWVNLKAIKRLVEAEALKMEIIPNPKEVDGVKVLQLETAAGAAIRFFDKAIGINVPRSRFLPVKATSDLLLVQSDLYTLVDGFVIRNPARANPANPSIELGPEFKKVANFLARFKSIPSIVELDSLKVSGDVWFGSGITLKGKVTITAKSGVKLEIPDGAVLENKDVNGPEDL
notes: active as monomer
Regarding B2, the Km in data set [1] was 230 µM; in data set [2], 110 µM.

B3: barley UGPase (Hordeum vulgare) (protein)
chain: MAAAAVAADSKIDGLRDAVAKLGEISENEKAGFISLVSRYLSGEAEQIEWSKIQTPTDEVVVPYDTLAPPPEDLDAMKALLDKLVVLKLNGGLGTTMGCTGPKSVIEVRNGFTFLDLIVIQIESLNKKYGCSVPLLLMNSFNTHDDTQKIVEKYSNSNIEIHTFNQSQYPRIVTEDFLPLPSKGQTGKDGWYPPGHGDVFPSLNNSGKLDTLLSQGKEYVFVANSDNLGAIVDIKILNHLIHNQNEYCMEVTPKTLADVKGGTLISYEGRVQLLEIAQVPDEHVDEFKSIEKFKIFNTNNLWVNLKAIKRLVDAEALKMEIIPNPKEVDGVKVLQLETAAGAAIRFFEKAIGINVPRSRFLPVKATSDLLLVQSDLYTLVDGYVIRNPARVKPSNPSIELGPEFKKVANFLARFKSIPSIVELDSLKVSGDVSFGSGVVLKGNVTIAAKAGVKLEIPDGAVLENKDINGPEDI
notes: active as monomer
B3: the Km in data set [3] (UDPG fixed at 1 mM) worked out at 30 µM; in data set [4] (PPi fixed at 1 mM) it was 40 µM.

B4: barley UGPase (Hordeum vulgare; C99S) (protein)
chain: MAAAAVAADSKIDGLRDAVAKLGEISENEKAGFISLVSRYLSGEAEQIEWSKIQTPTDEVVVPYDTLAPPPEDLDAMKALLDKLVVLKLNGGLGTTMGSTGPKSVIEVRNGFTFLDLIVIQIESLNKKYGCSVPLLLMNSFNTHDDTQKIVEKYSNSNIEIHTFNQSQYPRIVTEDFLPLPSKGQTGKDGWYPPGHGDVFPSLNNSGKLDTLLSQGKEYVFVANSDNLGAIVDIKILNHLIHNQNEYCMEVTPKTLADVKGGTLISYEGRVQLLEIAQVPDEHVDEFKSIEKFKIFNTNNLWVNLKAIKRLVDAEALKMEIIPNPKEVDGVKVLQLETAAGAAIRFFEKAIGINVPRSRFLPVKATSDLLLVQSDLYTLVDGYVIRNPARVKPSNPSIELGPEFKKVANFLARFKSIPSIVELDSLKVSGDVSFGSGVVLKGNVTIAAKAGVKLEIPDGAVLENKDINGPEDI
notes: active as monomer
As to B4, the Km was determined as 310 µM in data set [3] (UDPG fixed at 2 mM) and 110 µM in data set [4] (PPi fixed at 5 mM).

These data come from PMC10219370, “Exploring Redox Modulation of Plant UDP-Glucose Pyrophosphorylase” (International Journal of Molecular Sciences, 2023).
